Measured values taken from paper PMC1888833 (Nucleic Acids Research, 2007).
Residue numbers refer to the chain shown, from its start.

B1: HpDnaBDelN3 (N-terminal deletion mutant N3 of HpDnaB, lacking 174 N-terminal residues) (domain or fragment)
chain: EVTGIPTGFVQLDNYTSGFNKGSLVIIGARPSMGKTSLMMNMVLSALNDDRGVAVFSLEMSAEQLALRALSDLTSINMHDLESGRLDDDQWENLAKCFDHLSQKKLFFYDKSYVRIEQIRLQLRKLKSQHKELGIAFIDYLQLMSGSKATKERHEQIAEISRELKTLARELEIPIIALVQLNRSLENRDDKRPILSDIKDSGGIEQDADIVLFLYRGYIYQMRAEDNKIDKLKKEGKIEEAQELYLKVNEERRIHKQNGSIEEAEIIVAKNRNGATGTVYTRFNAPFTRYEDMPIDSHLEEGQETKVDYDIVTT
B2: Helicobacter pylori DnaB helicase, wild-type, full-length (enzyme, Helicobacter pylori (strain 26695), UniProt O25916 1-488, looked up)
chain: MDHLKHLQQLQNIERIVLSGIVLANHKIEEVHSVLEPSDFYYPPNGLFFEIALKLHEEDCPIDENFIRQKMPKDKQIKEEDLVAIFAASPIDNIEAYVEEIKNASIKRKLFGLANTIREQALESAQKSSDILGAVEREVYALLNGSTIEGFRNIKEVLESAMDLITENQRKGSLEVTGIPTGFVQLDNYTSGFNKGSLVIIGARPSMGKTSLMMNMVLSALNDDRGVAVFSLEMSAEQLALRALSDLTSINMHDLESGRLDDDQWENLAKCFDHLSQKKLFFYDKSYVRIEQIRLQLRKLKSQHKELGIAFIDYLQLMSGSKATKERHEQIAEISRELKTLARELEIPIIALVQLNRSLENRDDKRPILSDIKDSGGIEQDADIVLFLYRGYIYQMRAEDNKIDKLKKEGKIEEAQELYLKVNEERRIHKQNGSIEEAEIIVAKNRNGATGTVYTRFNAPFTRYEDMPIDSHLEEGQETKVDYDIVTT
B3: HpDnaBMut (ATP binding site mutant, R204 to C in the WALKER A domain) (enzyme, Helicobacter pylori (strain 26695), UniProt O25916 1-488, looked up)
chain: B2 chain with R204C
B4: HpDnaBDelN2 (N-terminal deletion mutant N2 of HpDnaB, lacking 133 N-terminal residues) (domain or fragment)
chain: AVEREVYALLNGSTIEGFRNIKEVLESAMDLITENQRKGSLEVTGIPTGFVQLDNYTSGFNKGSLVIIGARPSMGKTSLMMNMVLSALNDDRGVAVFSLEMSAEQLALRALSDLTSINMHDLESGRLDDDQWENLAKCFDHLSQKKLFFYDKSYVRIEQIRLQLRKLKSQHKELGIAFIDYLQLMSGSKATKERHEQIAEISRELKTLARELEIPIIALVQLNRSLENRDDKRPILSDIKDSGGIEQDADIVLFLYRGYIYQMRAEDNKIDKLKKEGKIEEAQELYLKVNEERRIHKQNGSIEEAEIIVAKNRNGATGTVYTRFNAPFTRYEDMPIDSHLEEGQETKVDYDIVTT

How the values were obtained:
[1] = biological target: HpDnaBDelN3 (Helicobacter pylori, UniProt O25916); details: labelled compound; pH 7.5, 4 °C, UV 254 nm
[2] = biological target: HpDnaBWt (Helicobacter pylori, UniProt O25916); details: labelled compound; pH 7.5, 4 °C, UV 254 nm
[3] = biological target: the molecule itself; test: SEC

| Molecule | UV cross-linking, SDS-PAGE, phosphorimager [1] | UV cross-linking, SDS-PAGE, phosphorimager [2] | stoichiometry N [3] |
| --- | --- | --- | --- |
| Nc1ncnc2c1ncn2[C@@H]1O[C@H](COP(=O)(O)OP(=O)(O)OP(=O)(O)O)[C@@H](O)[C@H]1O [∝-32PATP] | Wild-type, DelN2 and DelN3 showed ATP binding | Wild-type, DelN2 and DelN3 showed ATP binding | – |
| B1 | – | – | 2 |
| B2 | – | – | 6 |
| B3 | – | – | 6 |
| B4 | – | – | 6 |
